From publication PMC4749545, “Kindlin-2 cooperates with talin to activate integrins and induces cell spreading by directly binding paxillin” (eLife, 2016) come the findings set out here.

This test has as its target T1, recombinant murine kindlin-2 (mouse, UniProt Q8CIB5 1-680).
T1 construct: murine kindlin-2, unmodified after SenP2 cleavage of the His10-SUMO3 tandem tag; Vector pCoofy17; also called recombinant kindlin-2; purified kindlin-2; source: E. coli Rosetta, purified (Ni-NTA, SenP2 cleavage, size-exclusion chromatography); not shown: His10, N-terminal, cleaved; SUMO3, N-terminal, cleaved
T1 sequence (looked up): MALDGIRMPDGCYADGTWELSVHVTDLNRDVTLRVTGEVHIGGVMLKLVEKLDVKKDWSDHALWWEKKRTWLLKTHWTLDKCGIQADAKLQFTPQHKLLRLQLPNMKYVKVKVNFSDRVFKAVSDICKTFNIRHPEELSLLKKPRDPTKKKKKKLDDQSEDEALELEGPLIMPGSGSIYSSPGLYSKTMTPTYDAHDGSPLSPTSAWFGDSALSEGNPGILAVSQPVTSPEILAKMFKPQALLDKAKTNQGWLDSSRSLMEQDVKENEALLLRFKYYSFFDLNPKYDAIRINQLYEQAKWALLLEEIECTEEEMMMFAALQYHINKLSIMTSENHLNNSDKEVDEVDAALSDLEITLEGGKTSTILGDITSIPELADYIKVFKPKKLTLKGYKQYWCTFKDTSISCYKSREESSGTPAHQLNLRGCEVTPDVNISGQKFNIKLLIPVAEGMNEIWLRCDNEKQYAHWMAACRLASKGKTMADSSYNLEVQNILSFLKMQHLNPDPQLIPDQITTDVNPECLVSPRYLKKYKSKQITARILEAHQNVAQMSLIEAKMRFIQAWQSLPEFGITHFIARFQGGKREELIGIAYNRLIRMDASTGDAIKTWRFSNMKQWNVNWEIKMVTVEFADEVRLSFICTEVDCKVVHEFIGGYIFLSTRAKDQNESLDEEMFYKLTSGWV
The experiment in a line: pull-down; His10-tagged paxillin-LIM3 (35 µg) or paxillin-FL (10 µg) on Ni-NTA agarose, washed with 1 mM ZnCl2; 14 µg purified kindlin-2 added for 30 min at 4°C; 20 mM Tris pH 7.5, 200 mM NaCl, 1 mM TCEP, 0.05% Tween20; washes with 25 mM imidazole and 1 mM ZnCl2; SDS-PAGE. As to conditions: both partners purified.

B1: His10-SUMO3-paxillin-LIM3 domain (domain or fragment, mouse, UniProt Q8VI36 473-533, looked up)
chain: APKCGGCARAILENYISALNTLWHPECFVCRECFTPFVNGSFFEHDGQPYCEVHYHERRGS
notes: paxillin LIM3 domain, A473-S533; Vector pCoofy17. 'murine' in the sentence of the methods stands before kindlin-2 and may or may not hold for paxillin-LIM3; also called His10-LIM3; His-tagged paxillin-LIM3 domain; source: E. coli Rosetta, purified (Ni-NTA, size-exclusion chromatography); not shown: His10, N-terminal, kept; SUMO3, N-terminal, kept
Regarding B1, the binding result was “binds”.
